Data from article PMC9625839.

Target: high-affinity mouse IL2 receptor on CTLL-2 cells (mouse (endogenous in CTLL-2))

Substance: aldesleukin (FDA-approved recombinant human IL2) (from UniProt P60568 21-133) (ligand)
- CTLL-2 cell proliferation (WST-1 absorbance), EC50: 0.6 ng/mL
